Legend:
[1] = molecular target: Macaca mulatta CD27 (mmCD27) (Macaca mulatta (rhesus) / Macaca fascicularis (cynomolgus)); assay: cell-based or functional assay
[2] = molecular target: human CD27 (A59T) (human) (UniProt P26842); assay: cell-based or functional assay
human CD27 (human) = human CD27 (human) (UniProt P26842); assay: cell-based or functional assay
D32A [3] = assay: flow cytometry on CHO-K1 transfectants, left sub-column
D43A = assay: as above
E9A [4] = assay: as above
F28A [5] = assay: as above
G16A [6] = assay: as above
Chain of G16A (receptor chain, as listed by the source G16A G16A limits assumed): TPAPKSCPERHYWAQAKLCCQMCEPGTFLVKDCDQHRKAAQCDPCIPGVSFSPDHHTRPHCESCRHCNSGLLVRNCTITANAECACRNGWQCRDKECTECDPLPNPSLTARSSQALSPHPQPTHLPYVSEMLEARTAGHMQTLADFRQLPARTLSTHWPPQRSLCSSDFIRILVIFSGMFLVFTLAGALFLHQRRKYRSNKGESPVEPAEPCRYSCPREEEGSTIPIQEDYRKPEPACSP

G89A [7] = assay: as above
Chain of G89A (receptor chain, as listed by the source G89A G89A limits assumed): as the sequence (receptor chain, as listed by the source G16A G16A limits assumed) above, with A16G, G89A counted along it

H36A [8] = assay: as above
Chain of H36A (receptor chain, as listed by the source H36A H36A limits assumed): as the sequence (receptor chain, as listed by the source G16A G16A limits assumed) above, with A16G, H36A counted along it

H60A [9] = assay: as above
I46A = assay: as above
K17A [10] = assay: as above
Chain of K17A (receptor chain, as listed by the source K17A K17A limits assumed): as the sequence (receptor chain, as listed by the source G16A G16A limits assumed) above, with A16G, K17A counted along it

K31A [11] = assay: as above
Chain of K31A (receptor chain, as listed by the source K31A K31A limits assumed): as the sequence (receptor chain, as listed by the source G16A G16A limits assumed) above, with A16G, K31A counted along it

K38A [12] = assay: as above
Chain of K38A (receptor chain, as listed by the source K38A K38A limits assumed): as the sequence (receptor chain, as listed by the source G16A G16A limits assumed) above, with A16G, K38A counted along it

N88A [13] = assay: as above
Chain of N88A (receptor chain, as listed by the source N88A N88A limits assumed): as the sequence (receptor chain, as listed by the source G16A G16A limits assumed) above, with A16G, N88A counted along it

P44A [14] = assay: as above
Chain of P44A (receptor chain, as listed by the source P44A P44A limits assumed): as the sequence (receptor chain, as listed by the source G16A G16A limits assumed) above, with A16G, P44A counted along it

P8A [15] = assay: as above
Chain of P8A (receptor chain, as listed by the source limits assumed): as the sequence (receptor chain, as listed by the source G16A G16A limits assumed) above, with P8A, A16G counted along it

Q15A [16] = assay: as above
Chain of Q15A (receptor chain, as listed by the source Q15A Q15A limits assumed): as the sequence (receptor chain, as listed by the source G16A G16A limits assumed) above, with Q15A, A16G counted along it

Q41A [17] = assay: as above
Chain of Q41A (receptor chain, as listed by the source Q41A Q41A limits assumed): as the sequence (receptor chain, as listed by the source G16A G16A limits assumed) above, with A16G, Q41A counted along it

Q91A = assay: as above
R10A [18] = assay: as above
R37A [19] = assay: as above
R93A [20] = assay: as above
Chain of R93A (receptor chain, as listed by the source R93A R93A limits assumed): as the sequence (receptor chain, as listed by the source G16A G16A limits assumed) above, with A16G, R93A counted along it

S63A [21] = assay: as above
Chain of S63A (receptor chain, as listed by the source S63A S63A limits assumed): as the sequence (receptor chain, as listed by the source G16A G16A limits assumed) above, with A16G, S63A counted along it

V30A [22] = assay: as above
V49A [23] = assay: as above
Chain of V49A (receptor chain, as listed by the source V49A V49A limits assumed): as the sequence (receptor chain, as listed by the source G16A G16A limits assumed) above, with A16G, V49A counted along it

W13A [24] = assay: as above
Chain of W13A (receptor chain, as listed by the source W13A W13A limits assumed): as the sequence (receptor chain, as listed by the source G16A G16A limits assumed) above, with W13A, A16G counted along it

D32A [25] = assay: flow cytometry on CHO-K1 transfectants, right sub-column
E9A [26] = assay: as above
F28A [27] = assay: as above
G16A [28] = assay: as above
G89A [29] = assay: as above
H36A [30] = assay: as above
H60A [31] = assay: as above
K17A [32] = assay: as above
K31A [33] = assay: as above
K38A [34] = assay: as above
N88A [35] = assay: as above
P44A [36] = assay: as above
P8A [37] = assay: as above
Q15A [38] = assay: as above
Q41A [39] = assay: as above
R10A [40] = assay: as above
R37A [41] = assay: as above
R93A [42] = assay: as above
S63A [43] = assay: as above
V30A [44] = assay: as above
V49A [45] = assay: as above
W13A [46] = assay: as above
R87A [47] = assay: flow cytometry on CHO-K1 transfectants, left sub-column, cell hatched (loss of binding)
Chain of R87A (receptor chain, as listed by the source R87A R87A limits assumed): as the sequence (receptor chain, as listed by the source G16A G16A limits assumed) above, with A16G, R87A counted along it

W90A [48] = assay: as above
Chain of W90A (receptor chain, as listed by the source W90A W90A limits assumed): as the sequence (receptor chain, as listed by the source G16A G16A limits assumed) above, with A16G, W90A counted along it

R87A [49] = assay: flow cytometry on CHO-K1 transfectants, right sub-column, cell hatched (loss of binding)
W90A [50] = assay: as above

Chain of 1F5-hIgG1 (antibody) (VH): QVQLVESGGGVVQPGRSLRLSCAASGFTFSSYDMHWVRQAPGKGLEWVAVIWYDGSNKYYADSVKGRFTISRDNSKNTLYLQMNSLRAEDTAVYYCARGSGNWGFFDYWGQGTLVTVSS
Chain of 1F5-hIgG1 (antibody) (VL): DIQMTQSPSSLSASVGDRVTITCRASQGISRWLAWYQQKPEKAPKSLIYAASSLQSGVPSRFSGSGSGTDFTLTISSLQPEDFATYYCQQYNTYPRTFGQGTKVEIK
Chain of E9A (receptor chain, as listed by the source limits assumed): as the sequence (receptor chain, as listed by the source G16A G16A limits assumed) above, with E9A, A16G counted along it

NF-κB-luciferase reporter assay, Emax [1]: 1.33 fold change | NF-κB-luciferase reporter assay, Emax [2]: 1.3 fold change | NF-κB-luciferase reporter assay, Emax (human CD27 (human)): 1.48 fold change | binding, WT hCD27 = 100 (GM FITC) (D32A [3]): 115% | binding, WT hCD27 = 100 (GM FITC) (D43A): 202% | binding, WT hCD27 = 100 (GM FITC) (E9A [4]): 95.4% | binding, WT hCD27 = 100 (GM FITC) (F28A [5]): 113% | binding, WT hCD27 = 100 (GM FITC) (G16A [6]): 96% | binding, WT hCD27 = 100 (GM FITC) (G89A [7]): 103% | binding, WT hCD27 = 100 (GM FITC) (H36A [8]): 116% | binding, WT hCD27 = 100 (GM FITC) (H60A [9]): 176% | binding, WT hCD27 = 100 (GM FITC) (I46A): 128% | binding, WT hCD27 = 100 (GM FITC) (K17A [10]): 95.1% | binding, WT hCD27 = 100 (GM FITC) (K31A [11]): 205% | binding, WT hCD27 = 100 (GM FITC) (K38A [12]): 96.5% | binding, WT hCD27 = 100 (GM FITC) (N88A [13]): 153% | binding, WT hCD27 = 100 (GM FITC) (P44A [14]): 150% | binding, WT hCD27 = 100 (GM FITC) (P8A [15]): 82.5% | binding, WT hCD27 = 100 (GM FITC) (Q15A [16]): 99% | binding, WT hCD27 = 100 (GM FITC) (Q41A [17]): 104% | binding, WT hCD27 = 100 (GM FITC) (Q91A): 156% | binding, WT hCD27 = 100 (GM FITC) (R10A [18]): 105% | binding, WT hCD27 = 100 (GM FITC) (R37A [19]): 109% | binding, WT hCD27 = 100 (GM FITC) (R93A [20]): 120% | binding, WT hCD27 = 100 (GM FITC) (S63A [21]): 144% | binding, WT hCD27 = 100 (GM FITC) (V30A [22]): 171% | binding, WT hCD27 = 100 (GM FITC) (V49A [23]): 143% | binding, WT hCD27 = 100 (GM FITC) (W13A [24]): 89.5% | binding, WT hCD27 = 100 (GM FITC) (D32A [25]): 59.6% | binding, WT hCD27 = 100 (GM FITC) (E9A [26]): 120% | binding, WT hCD27 = 100 (GM FITC) (F28A [27]): 46.2% | binding, WT hCD27 = 100 (GM FITC) (G16A [28]): 101% | binding, WT hCD27 = 100 (GM FITC) (G89A [29]): 68.5% | binding, WT hCD27 = 100 (GM FITC) (H36A [30]): 80% | binding, WT hCD27 = 100 (GM FITC) (H60A [31]): 110% | binding, WT hCD27 = 100 (GM FITC) (K17A [32]): 112% | binding, WT hCD27 = 100 (GM FITC) (K31A [33]): 120% | binding, WT hCD27 = 100 (GM FITC) (K38A [34]): 94.2% | binding, WT hCD27 = 100 (GM FITC) (N88A [35]): 119% | binding, WT hCD27 = 100 (GM FITC) (P44A [36]): 83.7% | binding, WT hCD27 = 100 (GM FITC) (P8A [37]): 73.1% | binding, WT hCD27 = 100 (GM FITC) (Q15A [38]): 127% | binding, WT hCD27 = 100 (GM FITC) (Q41A [39]): 66.3% | binding, WT hCD27 = 100 (GM FITC) (R10A [40]): 113% | binding, WT hCD27 = 100 (GM FITC) (R37A [41]): 88% | binding, WT hCD27 = 100 (GM FITC) (R93A [42]): 85.5% | binding, WT hCD27 = 100 (GM FITC) (S63A [43]): 121% | binding, WT hCD27 = 100 (GM FITC) (V30A [44]): 88.9% | binding, WT hCD27 = 100 (GM FITC) (V49A [45]): 92.8% | binding, WT hCD27 = 100 (GM FITC) (W13A [46]): 82.8% | binding, WT hCD27 = 100 (GM FITC) (R87A [47]): 40.8% | binding, WT hCD27 = 100 (GM FITC) (W90A [48]): 42.5% | binding, WT hCD27 = 100 (GM FITC) (R87A [49]): 7.8% | binding, WT hCD27 = 100 (GM FITC) (W90A [50]): 10%
Substance: 1F5-hIgG1 (antibody)
